Source: patent US20050282743A1, “Molecular interactions in cells” (Arbor Vita Corporation, priority 2001, published 2005)
Each block holds one binder with its values, some of them ahead of it.

Columns and labels:
[1] = molecular target: T1, GST-DLG1 PDZ domain 2 (Homo sapiens), Q12959; test: G' assay; note: key of the grades not given here
T1 chain: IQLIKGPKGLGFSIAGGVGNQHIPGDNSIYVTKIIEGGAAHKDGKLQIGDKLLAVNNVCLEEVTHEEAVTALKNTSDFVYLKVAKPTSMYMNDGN

[2] = molecular target: T2, GST-Outer Membrane PDZ domain 1 (Homo sapiens (Human)), P57105; test: G' assay; note: key of the grades not given here
T2 chain: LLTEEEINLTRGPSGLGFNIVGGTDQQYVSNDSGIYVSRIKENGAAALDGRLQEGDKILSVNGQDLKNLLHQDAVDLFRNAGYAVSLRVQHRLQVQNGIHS

[3] = molecular target: GST-PSD95 PDZ domains 1, 2, 3 (Homo sapiens), P78352; test: G' assay; note: key of the grades not given here
[4] = molecular target: GST-KIAA1634 PDZ domain 1 (Homo sapiens (Human)), Q5TCQ9; test: G' assay; note: key of the grades not given here
[5] = molecular target: GST-Atrophin-1 Interacting Protein PDZ domain 1 (Rattus norvegicus (Rat)), O88382; test: G' assay; note: key of the grades not given here
[6] = molecular target: T3, GST-DLG2 PDZ domain 2 (Homo sapiens (Human)), Q15700; test: G' assay; note: key of the grades not given here
T3 chain: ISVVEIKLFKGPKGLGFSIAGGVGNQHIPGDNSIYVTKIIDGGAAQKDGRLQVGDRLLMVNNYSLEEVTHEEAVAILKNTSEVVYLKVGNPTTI

[7] = molecular target: GST-DLG1 PDZ domains 1, 2 (Homo sapiens), Q12959; test: G' assay; note: key of the grades not given here
[8] = molecular target: T4, GST-NeDLG PDZ domains 1, 2, Q92796; test: G' assay; note: key of the grades not given here
T4 chain: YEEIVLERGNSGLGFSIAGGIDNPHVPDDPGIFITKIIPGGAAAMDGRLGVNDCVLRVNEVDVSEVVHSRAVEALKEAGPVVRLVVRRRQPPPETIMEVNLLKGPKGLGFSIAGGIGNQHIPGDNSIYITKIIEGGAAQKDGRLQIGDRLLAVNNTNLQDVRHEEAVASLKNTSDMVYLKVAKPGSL

[9] = molecular target: GST-DLG1 PDZ domains 1, 2 (Homo sapiens), Q12959; test: G assay titration, PDZ 5 ug/ml
[10] = molecular target: T5, GST-KIAA0807(S) PDZ domain 1 (Homo sapiens (Human)), Q6P0Q8; test: G assay titration, PDZ 0.3 ug/ml
T5 chain: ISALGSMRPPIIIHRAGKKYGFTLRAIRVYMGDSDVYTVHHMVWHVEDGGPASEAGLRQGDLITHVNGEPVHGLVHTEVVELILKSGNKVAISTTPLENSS

[11] = molecular target: T6, GST-KIAA0561 PDZ domain 1 (Homo sapiens (Human)), O60307; test: G' assay; note: key of the grades not given here
T6 chain: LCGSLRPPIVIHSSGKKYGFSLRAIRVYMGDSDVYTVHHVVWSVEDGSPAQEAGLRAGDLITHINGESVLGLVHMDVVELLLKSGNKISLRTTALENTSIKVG

[12] = molecular target: T7, GST-PDZK1 PDZ domain 2 (Homo sapiens (Human)), Q5T2W1; test: G' assay; note: key of the grades not given here
T7 chain: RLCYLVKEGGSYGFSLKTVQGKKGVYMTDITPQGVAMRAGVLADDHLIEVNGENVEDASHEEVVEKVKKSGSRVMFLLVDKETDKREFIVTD

[13] = molecular target: T5, GST-KIAA0807(S) PDZ domain 1 (Homo …); test: G' assay; note: key of the grades not given here
[14] = molecular target: T8, GST-Shank 3 PDZ domain 1 (human (hypothetical, computer cloned)), Q9BYB0; test: G' assay; note: key of the grades not given here
T8 chain: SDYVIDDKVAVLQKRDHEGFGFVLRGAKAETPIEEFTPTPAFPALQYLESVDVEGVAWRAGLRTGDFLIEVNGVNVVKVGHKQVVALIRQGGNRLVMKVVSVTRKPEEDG

[15] = molecular target: T9, GST-Shank 1 PDZ domain 1 (Homo sapiens (Human)), Q9UPX8; test: G' assay; note: key of the grades not given here
T9 chain: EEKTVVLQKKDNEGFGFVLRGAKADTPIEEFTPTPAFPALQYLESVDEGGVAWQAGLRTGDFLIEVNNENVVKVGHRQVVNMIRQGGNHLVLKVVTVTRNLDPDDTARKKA

[16] = molecular target: T10, GST-PDZK1 PDZ domains 2, 3, 4, Q5T2W1; test: G' assay; note: key of the grades not given here
T10 chain: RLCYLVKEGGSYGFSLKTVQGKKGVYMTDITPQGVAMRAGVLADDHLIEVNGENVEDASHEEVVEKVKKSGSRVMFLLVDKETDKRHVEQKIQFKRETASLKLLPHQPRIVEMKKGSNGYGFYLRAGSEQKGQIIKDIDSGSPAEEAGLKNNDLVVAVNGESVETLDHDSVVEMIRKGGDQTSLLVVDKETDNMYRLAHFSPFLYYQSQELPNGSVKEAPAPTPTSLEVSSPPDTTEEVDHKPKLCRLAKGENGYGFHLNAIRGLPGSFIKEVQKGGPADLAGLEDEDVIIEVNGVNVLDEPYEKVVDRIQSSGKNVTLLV

[17] = molecular target: GST-KIAA807 [GST: P08515]; test: G' assay; note: key of the grades not given here
[18] = molecular target: T11, GST-EZRIN Binding Protein 50 PDZ domain 2 (Homo sapiens (Human)), O14745; test: G' assay; note: key of the grades not given here
T11 chain: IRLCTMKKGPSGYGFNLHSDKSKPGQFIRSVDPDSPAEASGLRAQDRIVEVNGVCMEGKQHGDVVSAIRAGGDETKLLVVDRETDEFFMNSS

[19] = molecular target: T12, GST-EZRIN Binding Protein 50 PDZ domain 1 (Homo sapiens (Human)), O14745; test: G' assay; note: key of the grades not given here
T12 chain: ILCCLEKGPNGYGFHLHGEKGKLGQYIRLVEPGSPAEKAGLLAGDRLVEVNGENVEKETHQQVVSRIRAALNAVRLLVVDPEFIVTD

[20] = molecular target: T7, GST-PDZK1 PDZ domain 2 (Homo sapiens …); test: G assay titration, PDZ 5 ug/ml
[21] = molecular target: GST-KIAA0147 PDZ domain 1 (Homo sapiens (Human)), Q14160; test: G' assay; note: key of the grades not given here
[22] = molecular target: T13, GST-KIAA1719 PDZ domain 3 (Homo sapiens (Human)), Q9C0E4; test: G' assay; note: key of the grades not given here
T13 chain: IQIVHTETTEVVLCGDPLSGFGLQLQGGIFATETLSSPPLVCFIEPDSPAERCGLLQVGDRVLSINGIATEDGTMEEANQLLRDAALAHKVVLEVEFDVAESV

[23] = molecular target: GST-PSD95 PDZ domain 1 (Homo sapiens); test: G' assay; note: key of the grades not given here
[24] = molecular target: T14, GST-MUPP1 PDZ domain 11 (Homo sapiens (Human)), O75970; test: G' assay; note: key of the grades not given here
T14 chain: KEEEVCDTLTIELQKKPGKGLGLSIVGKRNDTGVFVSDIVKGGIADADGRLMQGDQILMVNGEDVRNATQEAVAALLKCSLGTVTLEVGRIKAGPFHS

[25] = molecular target: T15, GST-MUPP1 PDZ domain 10 (Homo sapiens (Human)), O75970; test: G' assay; note: key of the grades not given here
T15 chain: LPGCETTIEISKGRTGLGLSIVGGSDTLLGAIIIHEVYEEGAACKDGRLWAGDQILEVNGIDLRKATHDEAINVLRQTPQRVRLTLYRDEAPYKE

[26] = molecular target: T16, GST-NeDLG PDZ domain 3 (Mus musculus (Mouse)), P70175; test: G' assay; note: key of the grades not given here
T16 chain: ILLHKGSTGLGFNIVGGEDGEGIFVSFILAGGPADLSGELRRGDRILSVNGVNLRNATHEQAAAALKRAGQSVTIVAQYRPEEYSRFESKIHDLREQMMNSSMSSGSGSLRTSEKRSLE

[27] = molecular target: GST-DLG1 PDZ domain 1 (Homo sapiens), Q12959; test: G' assay; note: key of the grades not given here
[28] = molecular target: T17, GST-KIAA0303 PDZ domain 1 (Homo sapiens (Human)), O15021; test: G' assay; note: key of the grades not given here
T17 chain: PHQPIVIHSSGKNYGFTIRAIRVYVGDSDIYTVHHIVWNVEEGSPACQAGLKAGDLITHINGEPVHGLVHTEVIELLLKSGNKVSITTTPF

[29] = molecular target: GST-DLG2 PDZ domain 1 (Homo sapiens (Human)), Q15700; test: G' assay; note: key of the grades not given here
[30] = molecular target: T18, GST-DLG1 PDZ domain 3 (Homo sapiens), Q12959; test: G' assay; note: key of the grades not given here
T18 chain: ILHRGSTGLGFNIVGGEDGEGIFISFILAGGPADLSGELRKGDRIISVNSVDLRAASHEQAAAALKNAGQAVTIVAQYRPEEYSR

[31] = molecular target: T19, GST-PSD95 PDZ domain 3 (Homo sapiens); test: G' assay; note: key of the grades not given here
T19 chain: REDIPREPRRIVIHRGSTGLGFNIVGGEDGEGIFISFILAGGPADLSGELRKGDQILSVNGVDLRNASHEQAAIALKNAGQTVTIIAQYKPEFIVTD

[32] = molecular target: T20, GST-BAI-1 Associated Protein PDZ domain 2 (Mus musculus (Mouse)), Q6RHR9; test: G' assay; note: key of the grades not given here
[33] = molecular target: T21, GST-NeDLG PDZ domain 2 (Rattus norvegicus (Rat)), Q62936; test: G' assay; note: key of the grades not given here
T21 chain: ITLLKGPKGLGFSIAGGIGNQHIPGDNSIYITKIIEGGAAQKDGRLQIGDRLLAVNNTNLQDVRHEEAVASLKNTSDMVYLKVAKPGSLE

[34] = molecular target: T19, GST-PSD95 PDZ domain 3 (Homo sapiens); test: G assay titration, PDZ 1 ug/ml
[35] = molecular target: T20, GST-BAI-1 Associated Protein PDZ domain …; test: G assay titration, PDZ 1 ug/ml
[36] = molecular target: T4, GST-NeDLG PDZ domains 1, 2, Q92796; test: G assay titration, PDZ 1 ug/ml

Chain of GST-Atrophin-1 Interacting Protein PDZ domain 1 (Rattus norvegicus (Rat)), O88382 (O88382 408-511): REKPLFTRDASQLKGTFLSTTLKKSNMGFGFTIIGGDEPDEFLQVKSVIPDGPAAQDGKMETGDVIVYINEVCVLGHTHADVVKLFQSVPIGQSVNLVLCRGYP
T20 sequence (Q6RHR9 455-558): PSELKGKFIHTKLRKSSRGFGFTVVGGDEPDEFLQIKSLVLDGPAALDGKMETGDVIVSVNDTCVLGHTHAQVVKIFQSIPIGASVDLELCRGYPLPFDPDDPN
Chain of GST-KIAA1634 PDZ domain 1 (Homo sapiens (Human)), Q5TCQ9 (Q5TCQ9 401-502): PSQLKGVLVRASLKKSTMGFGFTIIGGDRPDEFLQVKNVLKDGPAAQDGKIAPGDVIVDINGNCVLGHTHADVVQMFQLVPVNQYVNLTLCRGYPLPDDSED
Chain of GST-PSD95 PDZ domains 1, 2, 3 (Homo sapiens), P78352 (P78352 62-395): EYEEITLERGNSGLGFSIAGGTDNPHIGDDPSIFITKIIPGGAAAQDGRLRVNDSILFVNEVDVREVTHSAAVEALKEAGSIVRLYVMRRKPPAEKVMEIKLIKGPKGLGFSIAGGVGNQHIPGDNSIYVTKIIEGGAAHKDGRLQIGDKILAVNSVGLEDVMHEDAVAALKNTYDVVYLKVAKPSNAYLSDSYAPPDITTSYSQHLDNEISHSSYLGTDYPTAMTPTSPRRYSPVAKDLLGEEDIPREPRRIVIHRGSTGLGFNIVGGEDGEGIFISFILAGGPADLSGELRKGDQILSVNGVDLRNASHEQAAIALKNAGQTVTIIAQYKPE
Chain of GST-KIAA807 [GST: P08515] (P08515 whole entry, the tested form may be a part): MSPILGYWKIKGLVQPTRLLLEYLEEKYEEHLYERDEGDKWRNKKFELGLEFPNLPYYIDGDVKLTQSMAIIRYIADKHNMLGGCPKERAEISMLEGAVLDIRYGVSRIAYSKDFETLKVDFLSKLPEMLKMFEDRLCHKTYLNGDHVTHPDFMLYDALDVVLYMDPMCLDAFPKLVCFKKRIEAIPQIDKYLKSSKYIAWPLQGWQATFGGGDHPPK
Chain of GST-KIAA0147 PDZ domain 1 (Homo sapiens (Human)), Q14160 (Q14160 other isoform, or with tags, fused parts or gaps): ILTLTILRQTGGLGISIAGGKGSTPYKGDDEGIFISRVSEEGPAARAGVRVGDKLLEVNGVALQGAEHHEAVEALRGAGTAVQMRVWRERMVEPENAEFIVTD

Classification [1]: 1 A450 class
Classification [2]: 4 A450 class
Classification [3]: 2 A450 class
Classification [4]: 1 A450 class
Classification [5]: 1 A450 class
Classification [6]: 1 A450 class
Classification [7]: 2 A450 class
Classification [8]: 1 A450 class
Kd [9]: 5000 nM
Binder: LHNQASVPLEPRPLRRESEI (modifications not checked) [Kir2.1 (inwardly rect. K+ channel)]

Kd [10]: 1000 nM
Classification [11]: 1 A450 class
Classification [12]: 1 A450 class
Classification [13]: 2 A450 class
Classification [14]: 3 A450 class
Classification [15]: 3 A450 class
Classification [16]: 1 A450 class
Classification [17]: 2 A450 class
Classification [18]: 3 A450 class
Classification [19]: 3 A450 class
Kd [20]: 2000 nM
Binder: PSWRRSSLSESENATSLTTF (modifications not checked) [BLR-1]

Classification [21]: 2 A450 class
Classification [22]: 1 A450 class
Classification [23]: 3 A450 class
Classification [24]: 1 A450 class
Classification [25]: 2 A450 class
Classification [26]: 2 A450 class
Classification [13]: 1 A450 class
Classification [1]: 2 A450 class
Classification [27]: 2 A450 class
Classification [28]: 1 A450 class
Classification [3]: 5 A450 class
Classification [4]: 5 A450 class
Classification [29]: 1 A450 class
Classification [5]: 1 A450 class
Classification [30]: 1 A450 class
Classification [6]: 1 A450 class
Classification [31]: 5 A450 class
Classification [32]: 5 A450 class
Classification [7]: 5 A450 class
Classification [8]: 5 A450 class
Classification [33]: 1 A450 class
Kd [34]: 100 nM
Kd [35]: 300 nM
Kd [36]: 100 nM
Binder: SFTSILTCHQRRTQRKETVA (modifications not checked) [GluR5-2 (rat)]
